These results are taken from patent US20250011468A1.

The target of this assay is human plasma-derived FIXa (Haematologic Technologies Inc) (human) (UniProt P00740). In words: cell-based or functional assay.
Chain of human plasma-derived FIXa (Haematologic Technologies Inc) (human) (P00740 47-191, chain 1 of 2): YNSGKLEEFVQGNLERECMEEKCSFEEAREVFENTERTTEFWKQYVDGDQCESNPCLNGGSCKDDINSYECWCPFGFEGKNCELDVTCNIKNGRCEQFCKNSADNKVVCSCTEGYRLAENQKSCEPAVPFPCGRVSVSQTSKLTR
Chain of human plasma-derived FIXa (Haematologic Technologies Inc) (human) (P00740 227-461, chain 2 of 2): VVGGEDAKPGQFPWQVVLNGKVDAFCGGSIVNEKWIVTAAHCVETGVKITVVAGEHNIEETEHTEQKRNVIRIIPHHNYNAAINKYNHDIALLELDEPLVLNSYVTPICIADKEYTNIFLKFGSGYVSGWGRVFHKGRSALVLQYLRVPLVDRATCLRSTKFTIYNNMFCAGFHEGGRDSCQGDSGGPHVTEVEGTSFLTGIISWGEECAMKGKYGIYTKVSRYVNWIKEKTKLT

B1: 224F3 (anti-FIXa reference antibody, Scheiflinger et al.) (antibody, from another filing, human IgG1, V domains shown)
VH: QVQMQQSGAELVKPGASVKLSCKASGYTFTSQDINWVRQRPEQGLEWIGWIFPGDGSTKYNEKLKGKATLTTDKSSSTAFMQLSRLTSEDSAVYFCARSAYYRYDGSYYYAMDYWGQGTSVTVSS
VL: QIVLTQSPAIMSASLGEEITLTCSASSSVSYMLWYQQKSGTSPKLLIYTTSNLASGVPSRFSGTGSGTFYSLTISSVEAEDAADYYCHQWSSYPRTFGGGTKLEIKR
Regarding B1, the FXa generation rate at 3.2 nM mAb is 20 pM/min, the FXa generation rate at 6.3 nM mAb amounted to 17.4 pM/min, the FXa generation rate at 12.5 nM mAb was 14.7 pM/min and the FXa generation rate at 25 nM mAb came to 9 pM/min. Besides, the FXa generation rate at 50 nM mAb is 9 pM/min, the FXa generation rate at 100 nM mAb was found to be 7.2 pM/min, the FXa generation rate at 200 nM mAb turned out to be 5.5 pM/min and the Peak stimulatory activity relative to 224F3 (fold relative to 224F3) came out at 1.

B2: mAb1-1582 (monovalent one-armed version of the anti-FIXa antibody 224F3) (antibody, from another filing, V domains shown)
VH: QVQMQQSGAELVKPGASVKLSCKASGYTFTSQDINWVRQRPEQGLEWIGWIFPGDGSTKYNEKLKGKATLTTDKSSSTAFMQLSRLTSEDSAVYFCARSAYYRYDGSYYYAMDYWGQGTSVTVSS
VL: QIVLTQSPAIMSASLGEEITLTCSASSSVSYMLWYQQKSGTSPKLLIYTTSNLASGVPSRFSGTGSGTFYSLTISSVEAEDAADYYCHQWSSYPRTFGGGTKLEIKR
For B2, the Stimulation index at 3260 nM OA antibody was below 10 fold.
